Reference: patent publication US20250101080A1 (BIOSCEPTRE AUST, published 2025)
Changes are numbered by the printed parent chain.

T1: dysfunctional (non-functional) P2X7 receptor expressed on human cancer cells (human, UniProt Q99572 1-595)
T1 sequence: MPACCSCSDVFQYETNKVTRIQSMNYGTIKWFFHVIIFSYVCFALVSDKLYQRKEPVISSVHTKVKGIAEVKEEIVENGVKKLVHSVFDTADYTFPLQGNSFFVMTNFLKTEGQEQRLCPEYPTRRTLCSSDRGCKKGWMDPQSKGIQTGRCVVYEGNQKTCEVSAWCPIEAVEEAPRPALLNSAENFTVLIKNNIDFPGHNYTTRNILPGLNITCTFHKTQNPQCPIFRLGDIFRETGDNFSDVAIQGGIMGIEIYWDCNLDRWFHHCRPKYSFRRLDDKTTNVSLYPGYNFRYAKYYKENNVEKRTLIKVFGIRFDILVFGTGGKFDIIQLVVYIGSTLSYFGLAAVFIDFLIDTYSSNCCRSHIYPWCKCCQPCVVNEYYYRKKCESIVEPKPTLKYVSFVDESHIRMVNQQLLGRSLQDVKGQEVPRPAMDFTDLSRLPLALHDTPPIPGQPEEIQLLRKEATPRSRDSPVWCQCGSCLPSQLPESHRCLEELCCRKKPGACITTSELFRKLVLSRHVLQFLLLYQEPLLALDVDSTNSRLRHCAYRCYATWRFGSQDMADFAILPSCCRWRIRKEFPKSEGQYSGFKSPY

T2: EXD2_K193A (nf-P2X7) surface fusion protein on HEK293 cells (human, UniProt Q99572 47-332)
T2 sequence: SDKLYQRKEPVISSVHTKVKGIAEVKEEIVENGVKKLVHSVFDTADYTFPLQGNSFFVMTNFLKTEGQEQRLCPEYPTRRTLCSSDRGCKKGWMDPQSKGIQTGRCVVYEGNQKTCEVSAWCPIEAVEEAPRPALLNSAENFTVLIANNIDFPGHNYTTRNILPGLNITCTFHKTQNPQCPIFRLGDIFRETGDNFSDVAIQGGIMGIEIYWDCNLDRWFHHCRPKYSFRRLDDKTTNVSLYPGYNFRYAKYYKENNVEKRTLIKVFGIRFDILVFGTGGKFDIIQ

B1: PEP2-2-1-1 CAR (other)
chain: EVQLLESGGGLVQPGGSLRLSCAASGFTFRNHDMGWVRQAPGKGLEWVSAISGSGGSTYYADSVKGRFTISRDNSKNTLYLQMNSLRAEDTAVYYCAEPKPMDTEFDYRSPGTLVTVSSGGGESKYGPPCPSCPAPPVAGPSVFLFPPKPKDTLMISRTPEVTCVVVDVSQEDPEVQFNWYVDGVEVHNAKTKPREEQFNSTYRVVSVLTVLHQDWLNGKEYKCKVSNKGLPSSIEKTISKAKGQPREPQVYTLPPSQEEMTKNQVSLTCLVKGFYPSDIAVEWESNGQPENNYKTTPPVLDSDGSFFLYSRLTVDKSRWQEGNVFSCSVMHEALHNHYTQKSLSLSLGKPFWVLVVVGGVLACYSLLVTVAFIIFWVRSKRSRLLHSDYMNMTPRRPGPTRKHYQPYAPPRDFAAYRSRDQRLPPDAHKPPGGGSFRTPIQEEQADAHSTLAKIRVKFSRSADAPAYQQGQNQLYNELNLGRREEYDVLDKRRGRDPEMGGKPRRKNPQEGLYNELQKDKMAEAYSEIGMKGERRRGKGHDGLYQGLSTATKDTYDALHMQALPPR
B2: PEP2-472-2 CAR (other)
chain: B1 chain with F27Y, R30P, N31M, H32K, S57G, S118L, S119E

Legend:
[1] = biological target: T1, dysfunctional (non-functional) P2X7 …; experiment: cell-based or functional assay
[2] = biological target: T2, EXD2_K193A (nf-P2X7) surface fusion …; experiment: cell-based or functional assay

Binder	fold change in cell killing against empty vector transduced CD8 T cells (CytoTox 96 assay, 4 hours, 1:1 ratio, MDA-MB-231 cells) [1]	fold change in cell killing against empty vector transduced CD8 T cells (CytoTox 96 assay, 4 hours, 1:1 ratio) [2]
B1	~2.5 fold	~15 fold
B2	~2.25 fold	~11 fold
